± gives the standard deviation of the averaged measurements.
B1: library; a variant is named by its letters at N, in order (parent)
chain: GCUGUCACCGAGAAACUGUGAAGUAUAUCUUAAACCUGGGCACUUAAAAGAUAUAUGGAGUUAGUAGUGCAACCUGCUCGGUCUGAUGAGUCCNNNNNNGGACGAAACAGC

Legend:
cyclic di-GMP [1] = variants of: B1; assay: FACS-Seq fitted mean relative fluorescence mCherry/BFP without ligand (log10 relative fluorescence); HEK293T; ligand: cyclic di-GMP (c-di-GMP-II aptamer); higher = higher reporter protein expression; settings: ligand present: no
Summary of the method: (§1)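 Lentivirally transduced HEK293T libraries carried an mCherry reporter with the ribozyme switch and an EF1α-BFP marker. Transduced cells were enriched, then incubated with or without ligand for 48 h and sorted into 6 bins by mCherry/BFP. Genomic DNA from each bin was PCR-amplified, barcoded and sequenced on MiSeq. Fluorescence was the fitted normal mean of log10(mCherry/BFP) bin counts, scaled to five spiked-in control ribozymes.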

cyclic di-GMP [2] = variants of: B1; assay: normalized RNA/DNA level without ligand (relative to sTRSVctl = 100) (log10 (% of sTRSVctl)); HEK293T; ligand: cyclic di-GMP (c-di-GMP-II aptamer); higher = less ribozyme self-cleavage, higher mRNA level; settings: reporter: mCherry (pCS4076), ligand present: no
Experimental: (§2)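 Hammerhead (sTRSV) ribozyme switch libraries with a ligand aptamer grafted on stem I and a randomized N4-6 loop II, cloned into the 3' UTR of mCherry and transiently transfected into HEK293T cells; RNA-Seq 72 h post transfection with ligand added 1 h before transfection; RNA read count / plasmid DNA read count normalized to the non-cleaving sTRSVctl (x100), log10; sequences with >100 DNA reads. FACS-Seq: lentiviral library sorted into 6 bins after 48 h ligand, log-normal fit mean of mCherry/BFP scaled to controls. Printed sequences are partial switch sequences.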

cyclic di-GMP [3] = variants of: B1; assay: FACS-Seq fitted mean relative fluorescence mCherry/BFP with ligand (log10 relative fluorescence); HEK293T; ligand: cyclic di-GMP (c-di-GMP-II aptamer); ligand concentration (+) FACS-Seq: 1 mM; higher = higher reporter protein expression; settings: ligand present: yes
Summary of the method: as §1

cyclic di-GMP [4] = variants of: B1; assay: normalized RNA/DNA level with ligand (relative to sTRSVctl = 100) (log10 (% of sTRSVctl)); HEK293T; ligand: cyclic di-GMP (c-di-GMP-II aptamer); ligand concentration (+) RNA-Seq: 1 mM; higher = less ribozyme self-cleavage, higher mRNA level; settings: reporter: mCherry (pCS4076), ligand present: yes
Experimental: as §2

Row | Variant | FACS-Seq fitted mean (log10) (cyclic di-GMP [1]) | normalized RNA/DNA level without ligand (log10) (cyclic di-GMP [2]) | FACS-Seq fitted mean (log10) (cyclic di-GMP [3]) | normalized RNA/DNA level with ligand (log10) (cyclic di-GMP [4])
1 | GCUGUCACCGAGAAACUGUGAAGUAUAUCUUAAACCUGGGCACUUAAAAGAUAUAUGGAGUUAGUAGUGCAACCUGCUCGGUCUGAUGAGUCCCAGUUUGGACGAAACAGC | -0.341 ± 0.0054 | 1.5 ± 0.0081 | -0.0345 ± 0.033 | 1.67 ± 0.12
2 | GCUGUCACCGAGAAACUGUGAAGUAUAUCUUAAACCUGGGCACUUAAAAGAUAUAUGGAGUUAGUAGUGCAACCUGCUCGGUCUGAUGAGUCCUAGUUUGGACGAAACAGC | -0.234 ± 0.073 | 1.675 ± 0.0087 | 0.0254 ± 0.084 | 1.85 ± 0.081
3 | GCUGUCACCGAGAAACUGUGAAGUAUAUCUUAAACCUGGGCACUUAAAAGAUAUAUGGAGUUAGUAGUGCAACCUGCUCGGUCUGAUGAGUCCUAGUUGGGACGAAACAGC | 0.116 ± 0.21 | 1.7 ± 0.05 | 0.29 ± 0.039 | 1.81 ± 0.082
4 | GCUGUCACCGAGAAACUGUGAAGUAUAUCUUAAACCUGGGCACUUAAAAGAUAUAUGGAGUUAGUAGUGCAACCUGCUCGGUCUGAUGAGUCCUAUAAAGGACGAAACAGC | -0.114 ± 0.051 | 1.66 ± 0.026 | 0.111 ± 0.097 | 1.79 ± 0.13
5 | GCUGUCACCGAGAAACUGUGAAGUAUAUCUUAAACCUGGGCACUUAAAAGAUAUAUGGAGUUAGUAGUGCAACCUGCUCGGUCUGAUGAGUCCGAUAAAGGACGAAACAGC | -0.481 ± 0.013 | 1.47 ± 0.065 | -0.1618 ± 0.00059 | 1.63 ± 0.1
6 | GCUGUCACCGAGAAACUGUGAAGUAUAUCUUAAACCUGGGCACUUAAAAGAUAUAUGGAGUUAGUAGUGCAACCUGCUCGGUCUGAUGAGUCCAAUAAAGGACGAAACAGC | -0.411 ± 0.041 | 1.47 ± 0.097 | -0.166 ± 0.054 | 1.69 ± 0.069
7 | GCUGUCACCGAGAAACUGUGAAGUAUAUCUUAAACCUGGGCACUUAAAAGAUAUAUGGAGUUAGUAGUGCAACCUGCUCGGUCUGAUGAGUCCCAUAAAGGACGAAACAGC | -0.673 ± 0.064 | 1.23 ± 0.14 | -0.363 ± 0.021 | 1.42 ± 0.066

From the supplement of paper PMC6757056
